The target of data set [1] is MART-1 peptide on HLA-A2, on HLA-A2 positive SupT1 cells expressing Ii L17A/RRP MART-1. Put plainly: flow cytometry; HLA-A2 positive SupT1 cells expressing Ii L17A/RRP MART-1, 10 nM sTcR, anti-His-PE. (In general: In flow cytometry, cells or beads pass a laser one at a time.)
Data set [2] deals with MART-1 peptide on HLA-A2, on HLA-A2 positive SupT1 cells expressing Iiwt MART-1. As to the kind of experiment: flow cytometry; HLA-A2 positive SupT1 cells expressing Iiwt MART-1, 10 nM sTcR, anti-His-PE.
The target in data set [3] is HLA-A2 single-chain trimer (SCT) combined with MART-1 peptide. As to the kind of experiment: flow cytometry; SupT1 cells expressing SCT-MART-1, 10 nM sTcR 15 min at RT, anti-His-PE.
Data set [4] deals with the molecule itself. Put plainly: self-association (trimer); western blot of boiled and non-boiled whole cell lysates of transfected Hek cells, anti Ii M-B741. How it is done:
Hek cells were transfected as indicated. After 24 hours, whole cell lysates (WCL) were subjected to 4-20% SDS-PAGE Tris-HEPES-SDS gels, transferred to PVDF membranes and probed with anti Ii antibody, M-B741. The samples were either boiled or non-boiled before gel loading. Ii trimers and monomers are shown. Detection of actin in the WCL was used as loading control using anti-actin antibodies.
In order to function as a chaperone for MHC II antigen presentation, Ii depends on two important features; the ability to trimerize[17] and to traffic to the endosomal pathway. The trimerization of IiRRP/L17A was analyzed by western blotting (WB).
In general terms: In western blotting, separated proteins are transferred to a membrane and probed.

The source of these data is patent US20200009238A1 (UNIVERSITETET I OSLO, published 2020).

With “soluble form of DMF5 (MART-1 specific TcR)”, the MFI in data set [1] was 194 MFI; in data set [2], 105 MFI; in data set [3], 37000 MFI. The percent of cells stained in data set [1] came out at 21%; in data set [2] it was 2%; in data set [3], 100%.

B1: human invariant chain Iip33 wild type (other)
chain: MDDQRDLISNNEQLPMLGRRPGAPESKCSRGALYTGFSILVTLLLAGQATTAYFLYQQQGRLDKLTVTSQNLQLENLRMKLPKPPKPVSKMRMATPLLMQALPMGALPQGPMQNATKYGNMTEDHVMHLLQNADPLKVYPPLKGSFPENLRHLKNTMETIDWKVFESWMHHWLLFEMSRHSLEQKPTDAPPKESLELEDPSSGLGVTKQDLGPVPM
notes: Full length protein expressed in transfected Hek cells and analysed in whole cell lysates; also called Iiwt; Ii wt
For B1, the binding result in data set [4] is recorded as “binds”.

B2: invariant chain trafficking mutant Ii RRP/L17A (other)
chain: MDDRRPLISNNEQLPMAGRRPGAPESKCSRGALYTGFSILVTLLLAGQATTAYFLYQQQGRLDKLTVTSQNLQLENLRMKLPKPPKPVSKMRMATPLLMQALPMGALPQGPMQNATKYGNMTEDHVMHLLQNADPLKVYPPLKGSFPENLRHLKNTMETIDWKVFESWMHHWLLFEMSRHSLEQKPTDAPPKESLELEDPSSGLGVTKQDLGPVPM
notes: Expressed in Hek cells and analysed in lysates; also called IiL17A/RRP; Ii L17A RRP
B2: the binding result in data set [4] is listed as “binds”.

B3: invariant chain double leucine mutant Ii L7A/L17A (other)
chain: MDDQRDAISNNEQLPMAGRRPGAPESKCSRGALYTGFSILVTLLLAGQATTAYFLYQQQGRLDKLTVTSQNLQLENLRMKLPKPPKPVSKMRMATPLLMQALPMGALPQGPMQNATKYGNMTEDHVMHLLQNADPLKVYPPLKGSFPENLRHLKNTMETIDWKVFESWMHHWLLFEMSRHSLEQKPTDAPPKESLELEDPSSGLGVTKQDLGPVPM
notes: Expressed in Hek cells and analysed in lysates
For the molecule B3, in data set [4], the binding result was “binds”.
